The record followed here is article PMC5749897.

One experiment concerns the target AR2A. Description: flow cytometry. To be noted: read off a plot. A general note: Flow cytometry measures light scatter and fluorescence of single cells or particles in a stream.
For experiment [1], the target named is AP33. Briefly: flow cytometry. To be noted: read off a plot.
A further experiment concerns the target AR3A. Briefly: flow cytometry. To be noted: read off a plot.
A further experiment has as its target AR1A. Briefly: flow cytometry.
Experiment [2] deals with HCV1. Briefly: flow cytometry. The note with it: read off a plot.
Experiment [3] has as its target AP33. Description: flow cytometry or ELISA. To be noted: read off a plot.
Experiment [4] addresses A4. Description: flow cytometry or ELISA. The note with it: read off a plot.
For experiment [5], the target named is HCV1. Briefly: flow cytometry or ELISA. The note with it: read off a plot.
Experiment [6] concerns the target recombinant CD81-LEL Fc-fusion protein. Description: ELISA. To be noted: first point of the titration, dilution 1/1; parent: est. 0.42; read off a plot. In general terms: In an ELISA, binding on a coated surface is turned into a signal by an enzyme label.
Experiment [7] addresses CD81-Fc (K124T), a mutant that reduces CD81 dimerization (UniProt P60033). Description: ELISA. To be noted: first point of the titration, dilution 1/1; parent: est. 0.65; read off a plot.
The target in experiment [8] is HCV1. Briefly: ELISA. The note with it: first point of the titration, dilution 1/100; parent: est. 1.3; read off a plot.
The target of experiment [9] is soluble WT E2c (E2 core domain). Description: ELISA. The note with it: first point of the titration, dilution 1/1; parent: est. 0.42; read off a plot.
A further experiment deals with AR1B. Description: flow cytometry.
Experiment [10] addresses A4. Briefly: flow cytometry. The note with it: read off a plot.
In experiment [11] the target is E1E2 G278A (H77 alanine-scanning library clone) (hepatitis C virus genotype 1a, strain H77). Description: flow cytometry on cells.
Experiment [12] has as its target E1E2 W616A (H77 alanine-scanning library clone) (hepatitis C virus genotype 1a, strain H77). Description: flow cytometry on cells.
Experiment [13] addresses E1E2 Y276A (H77 alanine-scanning library clone) (hepatitis C virus genotype 1a, strain H77). Briefly: flow cytometry on cells.
In experiment [14] the target is E1E2 I622A (H77 alanine-scanning library clone) (hepatitis C virus genotype 1a, strain H77). Briefly: flow cytometry on cells.
Experiment [15] has as its target E1E2 D279A (H77 alanine-scanning library clone) (hepatitis C virus genotype 1a, strain H77). Description: flow cytometry on cells.
For experiment [16], the target named is E1E2 Y613A (plasmid H77c, no V5 tag) (hepatitis C virus genotype 1a, strain H77). Description: flow cytometry on cells.
The target in experiment [17] is E1E2 F627A, ELISA antigen (transfected cell lysate) (hepatitis C virus genotype 1a, strain H77). Briefly: ELISA.
For experiment [18], the target named is E1E2 I622A, ELISA antigen (transfected cell lysate) (hepatitis C virus genotype 1a, strain H77). Description: ELISA.

Like-named read-outs stand apart in the source and are kept apart here. Where only a bound is given, the exact number is not on record here.

Sequence of CD81-Fc (K124T), a mutant that reduces CD81 dimerization (P60033 whole entry K124T, looked up, tested part not stated): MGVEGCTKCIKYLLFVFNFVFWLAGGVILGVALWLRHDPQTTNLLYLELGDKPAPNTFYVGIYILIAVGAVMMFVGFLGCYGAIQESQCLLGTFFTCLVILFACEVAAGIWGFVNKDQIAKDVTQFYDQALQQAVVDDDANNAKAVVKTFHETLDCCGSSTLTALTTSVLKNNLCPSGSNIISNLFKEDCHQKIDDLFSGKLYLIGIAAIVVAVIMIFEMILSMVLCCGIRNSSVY

In the case of “wild-type HCV E1E2 (genotype 1a, strain H77) expression construct with C-terminal V5 epitope tag G440A”, the percent of parent is 82 % of WT in the experiment with AR2A; 81 % of WT in the experiment with AP33 [1]; 20 % of WT with AR3A; 84 % of WT with AR1A (read off a plot); 84 % of WT with HCV1 [2].

“wild-type HCV E1E2 (genotype 1a, strain H77) expression construct with C-terminal V5 epitope tag Y485A”: the figures for the percent of parent with AP33 [1] and with AR1A (read off a plot) were 104 % of WT and 43 % of WT, respectively.

On to “wild-type HCV E1E2 (genotype 1a, strain H77) expression construct with C-terminal V5 epitope tag Y632A”, for which, in the experiment with AR1A, the percent of parent was < 0 % of WT.

Consider “wild-type HCV E1E2 (genotype 1a, strain H77) expression construct with C-terminal V5 epitope tag T518A”, for which the percent of parent in the experiment with AR2A was 140 % of WT; with AP33 [1] it was 106 % of WT; in the experiment with AR1A (read off a plot) it was 100 % of WT; with HCV1 [2] it was 100 % of WT.

“wild-type HCV E1E2, plasmid H77c (no V5 tag) C452A”: the percent of parent in the experiment with AP33 [3] is 60 % of WT; with A4 [4] it was 93 % of WT; with HCV1 [5] it was 77 % of WT.

With “wild-type HCV E1E2 (genotype 1a, strain H77) expression construct with C-terminal V5 epitope tag C503A”, the percent of parent with AR1A (read off a plot) is 200 % of WT.

Consider “wild-type HCV E1E2, plasmid H77c (no V5 tag) K562A”, for which the percent of parent is 75 % of WT with AP33 [3], 77 % of WT in the experiment with A4 [4] and 95 % of WT with HCV1 [5].

For the substance “soluble WT E2c (E2 core domain) I622A; F627A”, the response was determined as 0.94 OD450 in [6], 1.2 OD450 in [7] and 1.3 OD450 in the experiment with HCV1 [8].

Turning to “wild-type HCV E1E2 (genotype 1a, strain H77) expression construct with C-terminal V5 epitope tag L438A”, the percent of parent with AP33 [1] is 76 % of WT; in the experiment with HCV1 [2] it was 75 % of WT.

“recombinant CD81-LEL Fc-fusion protein K124T”: in experiment [9], the response was 0.65 OD450.

Take “wild-type HCV E1E2, plasmid H77c (no V5 tag) D346A”: the values for the percent of parent with AP33 [3], with A4 [4] and with HCV1 [5] were 100 % of WT, 95 % of WT and 98 % of WT, respectively.

With “wild-type HCV E1E2, plasmid H77c (no V5 tag) T396A”, the values for the percent of parent with AP33 [3], in the experiment with A4 [4] and with HCV1 [5] were 68 % of WT, 85 % of WT and 98 % of WT, respectively.

For “wild-type HCV E1E2 (genotype 1a, strain H77) expression construct with C-terminal V5 epitope tag W549A”, the percent of parent with AR1B and with AR1A was < 0 % of WT in each case.

On to soluble WT E2c (E2 core domain) F627A, for which the response in experiment [6] is 0.38 OD450; in experiment [7], 0.62 OD450; with HCV1 [8], 1.3 OD450.

Turning to “wild-type HCV E1E2 (genotype 1a, strain H77) expression construct with C-terminal V5 epitope tag G547A”, the percent of parent with AR1B (read off a plot) was 22 % of WT; with A4 [10] it was 74 % of WT; with AR1A (read off a plot), 18 % of WT; with HCV1 [2], 44 % of WT.

Turning to “wild-type HCV E1E2, plasmid H77c (no V5 tag) R237A”, the percent of parent is 110 % of WT in the experiment with AP33 [3], 82 % of WT in the experiment with A4 [4] and 105 % of WT with HCV1 [5].

Consider “wild-type HCV E1E2, plasmid H77c (no V5 tag) W712A”, for which the percent of parent with AP33 [3] is 81 % of WT; with A4 [4], 80 % of WT; with HCV1 [5], 82 % of WT.

As for “wild-type HCV E1E2 (genotype 1a, strain H77) expression construct with C-terminal V5 epitope tag G495A”, the percent of parent in the experiment with AR1A (read off a plot) was 26 % of WT; with HCV1 [2] it was 92 % of WT.

As for soluble WT E2c (E2 core domain) I622A, the response turned out to be 1.4 OD450 in [6], 1.5 OD450 in experiment [7] and 1.3 OD450 in the experiment with HCV1 [8].

“wild-type HCV E1E2 (genotype 1a, strain H77) expression construct with C-terminal V5 epitope tag P544A”: the percent of parent in the experiment with AR1B (read off a plot) is 5 % of WT; with AR1A (read off a plot) it was 9 % of WT; in the experiment with HCV1 [2], 45 % of WT.

“wild-type HCV E1E2 (genotype 1a, strain H77) expression construct with C-terminal V5 epitope tag N548A”: the percent of parent with AR1B was < 0 % of WT; in the experiment with AR1A (read off a plot), 23 % of WT.

Turning to “recombinant CD81-LEL Fc-fusion protein (Fc fusion)”, the % CD81 binding (of wild type) was determined as 50% in [11], 50% in experiment [13] and 48% in experiment [15]. Further, the % binding activity in experiment [12] and in [16] was < 3% throughout. Further, the % of wild-type reactivity (% of wild-type reactivity) in [12] and in experiment [16] was < 25 throughout. Also, the results for the enhancement of binding over wild type in experiment [14], in experiment [17] and in experiment [18] were 49%, 13% and 56%, respectively.

On to “wild-type HCV E1E2 (genotype 1a, strain H77) expression construct with C-terminal V5 epitope tag P545A”, for which the values for the percent of parent with AR1B (read off a plot), with AR1A (read off a plot) and with HCV1 [2] were 6 % of WT, 18 % of WT and 92 % of WT, respectively.

Take “wild-type HCV E1E2, plasmid H77c (no V5 tag) Q336A”: the percent of parent is 80 % of WT with AP33 [3], 88 % of WT in the experiment with A4 [4] and 88 % of WT in the experiment with HCV1 [5].

Consider “wild-type HCV E1E2, plasmid H77c (no V5 tag) C272A”, for which the percent of parent was 85 % of WT with AP33 [3], 93 % of WT with A4 [4] and 98 % of WT with HCV1 [5].

Turning to “wild-type HCV E1E2, plasmid H77c (no V5 tag) Y624A”, the results for the percent of parent with AP33 [3] and in the experiment with A4 [4] were 38 % of WT and 43 % of WT, respectively.

For the substance “wild-type HCV E1E2 (genotype 1a, strain H77) expression construct with C-terminal V5 epitope tag W437A”, the percent of parent was 77 % of WT with AP33 [1] and 95 % of WT with HCV1 [2].
